Assay results as given in article PMC7754472, “RPW8.1 enhances the ethylene‐signaling pathway to feedback‐attenuate its mediated cell death and disease resistance in Arabidopsis”.

B1: OBS1 (dsDNA)
DNA 1: ACGTAATTCAATAATATTCTACGTAATTTAATACTCACGACAACTTGCATAT
DNA 2: ATATGCAAGTTGTCGTGAGTATTAAATTACGTAGAATATTATTGAATTACGT
B2: mutant competitor V (OBS1, T/A-rich motif mutant) (dsDNA)
DNA 1: ACGTAATTCAAGAAGATTCTACGTAATTCAAGACTCACGACAACTTGCATAT
DNA 2: ATATGCAAGTTGTCGTGAGTCTTGAATTACGTAGAATCTTCTTGAATTACGT
B3: OBS4 (dsDNA)
DNA 1: ACATAAAACTATTTAATATGGTTCCATCCTTCCATGTACATAGATTCCTCT
DNA 2: AGAGGAATCTATGTACATGGAAGGATGGAACCATATTAAATAGTTTTATGT
B4: OBS3 (dsDNA)
DNA 1: TATGAGTCAATCTCTTGAATTGTCTTCATATAATTAAAACCACTCGTTAACTTGTTAA
DNA 2: TTAACAAGTTAACGAGTGGTTTTAATTATATGAAGACAATTCAAGAGATTGACTCATA
B5: OBS5 (dsDNA)
DNA 1: ATGTACATAGATTCCTCTATATTCACCTCGAGAGCTAAACAACTACTTTCAAAAA
DNA 2: TTTTTGAAAGTAGTTGTTTAGCTCTCGAGGTGAATATAGAGGAATCTATGTACAT
B6: OBS2 (dsDNA)
DNA 1: TTGCATATAGATCCAACGATCTCCTCTTACCTAGAAAAAGAGAGAGTTGTTGACCCGTA
DNA 2: TACGGGTCAACAACTCTCTCTTTTTCTAGGTAAGAGGAGATCGTTGGATCTATATGCAA
B7: mutant competitor III (OBS2, BOX-W1 mutant) (dsDNA)
DNA 1: TTGCATATAGATCCAACGATCTCCTCTTACCTAGAAAAAGAGAGAGTTGTACACCCGTA
DNA 2: TACGGGTGTACAACTCTCTCTTTTTCTAGGTAAGAGGAGATCGTTGGATCTATATGCAA
B8: mutant competitor I (OBS2, T/A-rich motif mutant) (dsDNA)
DNA 1: TTGCAGACAGATCCAACGATCTCCTCTTACCTCGAAAAAGAGAGAGTTGTTGACCCGTA
DNA 2: TACGGGTCAACAACTCTCTCTTTTTCGAGGTAAGAGGAGATCGTTGGATCTGTCTGCAA
B9: mutant competitor IV (OBS2, unnamed motif and TCT-motif mutant) (dsDNA)
DNA 1: TTGCATATAGATCCAACGATCTCGACTTACCTAGAAAAAGAGAGAGTTGTTGACCCGTA
DNA 2: TACGGGTCAACAACTCTCTCTTTTTCTAGGTAAGTCGAGATCGTTGGATCTATATGCAA
B10: mutant competitor II (OBS2, GAG-motif mutant) (dsDNA)
DNA 1: TTGCATATAGATCCAACGATCTCCTCTTACCTAGAAAAAGACACAGTTGTTGACCCGTA
DNA 2: TACGGGTCAACAACTGTGTCTTTTTCTAGGTAAGAGGAGATCGTTGGATCTATATGCAA

What was measured:
[1] = target: T1, GST-ORA59 (Arabidopsis thaliana, UniProt Q9LND1 1-244); experiment: EMSA; Chemiluminescent EMSA kit (Beyotime) EMSA/Gel-Shift binding buffer; salt, pH and temperature not stated; settings: protein: recombinant, tags: N-terminal GST (pGEX), blunt
T1 sequence (Q9LND1 whole entry): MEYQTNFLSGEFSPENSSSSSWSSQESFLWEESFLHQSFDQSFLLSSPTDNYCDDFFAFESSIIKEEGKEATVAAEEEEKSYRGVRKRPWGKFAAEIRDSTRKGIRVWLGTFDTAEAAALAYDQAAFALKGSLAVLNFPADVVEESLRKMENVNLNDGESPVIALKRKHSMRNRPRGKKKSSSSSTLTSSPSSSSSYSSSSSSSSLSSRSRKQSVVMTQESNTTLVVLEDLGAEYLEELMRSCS

[2] = target: T1, GST-ORA59; experiment: competition; 5-, 25-, 50-fold excess vs biotin-OBS1; Chemiluminescent EMSA kit (Beyotime) EMSA/Gel-Shift binding buffer; salt, pH and temperature not stated; settings: protein: recombinant; tags: N-terminal GST (pGEX); blunt
[3] = target: T1, GST-ORA59; experiment: competition; 5-, 25-, 50-fold excess vs biotin-OBS2; Chemiluminescent EMSA kit (Beyotime) EMSA/Gel-Shift binding buffer; salt, pH and temperature not stated; settings: protein: recombinant; tags: N-terminal GST (pGEX); blunt

Binder | binding result ([1]; label: 3' biotin) | binding result [3] | further results
B1 |  |  | binding result ([1]; label: 3' biotin (probe)): binds
B2 |  |  | binding result [2]: no binding
B3 | binds |  | 
B4 | binds |  | 
B5 | binds |  | 
B6 |  |  | binding result ([1]; label: 3' biotin (probe)): binds
B7 |  | binds | 
B8 |  | no binding | 
B9 |  | binds | 
B10 |  | binds | 
